Data published in patent US20090074782A1 (ONCOMED PHARMACEUTICALS, published 2009).

T1: FLAG-LGR5-CD4™ (human, UniProt O75473 22-564)
T1 construct: domain: transmembrane domain; Transiently expressed on HEK 293 cells together with GFP; also called variant cell-surface LGR5 protein; cell-associated LGR5 construct; not shown: N-terminal FLAG tag; transmembrane domain of CD4
T1 sequence: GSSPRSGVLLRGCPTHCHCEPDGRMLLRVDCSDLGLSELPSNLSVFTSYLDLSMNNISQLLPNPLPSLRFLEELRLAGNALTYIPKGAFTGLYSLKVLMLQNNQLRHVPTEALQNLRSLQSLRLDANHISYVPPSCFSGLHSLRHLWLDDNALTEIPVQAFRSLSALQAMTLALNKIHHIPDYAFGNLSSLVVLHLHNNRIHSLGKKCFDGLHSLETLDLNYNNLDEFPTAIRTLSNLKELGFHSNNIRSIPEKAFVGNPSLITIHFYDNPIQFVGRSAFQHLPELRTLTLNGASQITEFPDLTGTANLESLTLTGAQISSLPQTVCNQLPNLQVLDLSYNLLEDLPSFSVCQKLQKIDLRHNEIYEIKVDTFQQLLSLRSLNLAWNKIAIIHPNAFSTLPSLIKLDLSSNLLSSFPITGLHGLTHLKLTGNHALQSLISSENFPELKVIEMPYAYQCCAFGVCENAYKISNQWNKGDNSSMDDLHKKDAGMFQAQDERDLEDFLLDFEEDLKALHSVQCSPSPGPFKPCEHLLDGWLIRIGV

B1: FZD9-Fc (Fc fusion, UniProt O00144 23-159, looked up)
chain: LEIGRFDPERGRGAAPCQAVEIPMCRGIGYNLTRMPNLLGHTSQGEAAAELAEFAPLVQYGCHSHLRFFLCSLYAPMCTDQVSTPIPACRPMCEQARLRCAPIMEQFNFGWPDSLDCARLPTRNDPHALCMEAPENA
notes: One of the 'various FZD-Fc constructs, including FZD1-10'; not shown: Fc
B2: RSPO1-CD4™ (ligand)
chain: SRGIKGKRQRRISAEGSQACAKGCELCSEVNGCLKCSPKLFILLERNDIRQVGVCLPSCPPGYFDARNPDMNKCIKCKIEHCEACFSHNFCTKCKEGLYLHKGRCYPACPEGSSAANGTMECSSPAQCEMSEWSPWGPCSKKQQLCGFRRGSEERTRRVLHAPVGDHAACSDTKETRRCTVRRVPCPEGQKRRKGGQGRRENANRNLARKESKEAGAGSRRRKGQQQQQQQGTVGPLTSAGPA
notes: domain: transmembrane domain; Transiently expressed on HEK 293 cells together with GFP; also called cell-surface RSPO1; RSPO1-CD4TM; not shown: transmembrane domain of CD4
B3: FZD8-Fc (Fc fusion, UniProt Q9H461 28-158, looked up)
chain: ASAKELACQEITVPLCKGIGYNYTYMPNQFNHDTQDEAGLEVHQFWPLVEIQCSPDLKFFLCSMYTPICLEDYKKPLPPCRSVCERAKAGCAPLMRQYGFAWPDRMRCDRLPEQGNPDTLCMDYNRTDLTT
notes: One of the 'various FZD-Fc constructs, including FZD1-10'; also used against FLAG-LGR5-CD4™ cells; also called soluble FZD8; not shown: Fc
B4: FZD10-Fc (Fc fusion, UniProt Q9ULW2 21-154, looked up)
chain: ISSMDMERPGDGKCQPIEIPMCKDIGYNMTRMPNLMGHENQREAAIQLHEFAPLVEYGCHGHLRFFLCSLYAPMCTEQVSTPIPACRVMCEQARLKCSPIMEQFNFKWPDSLDCRKLPNKNDPNYLCMEAPNNG
notes: One of the 'various FZD-Fc constructs, including FZD1-10'; also called soluble FZD10; not shown: Fc
B5: FZD4-Fc (Fc fusion, UniProt Q9ULV1 40-170, looked up)
chain: EEERRCDPIRISMCQNLGYNVTKMPNLVGHELQTDAELQLTTFTPLIQYGCSSQLQFFLCSVYVPMCTEKINIPIGPCGGMCLSVKRRCEPVLKEFGFAWPESLNCSKFPPQNDHNHMCMEGPGDEEVPLP
notes: as for B1
B6: FZD3-Fc (Fc fusion, UniProt Q9NPG1 23-143, looked up)
chain: HSLFSCEPITLRMCQDLPYNTTFMPNLLNHYDQQTAALAMEPFHPMVNLDCSRDFRPFLCALYAPICMEYGRVTLPCRRLCQRAYSECSKLMEMFGVPWPEDMECSRFPDCDEPYPRLVDL
notes: as for B1
B7: FZD6-Fc (Fc fusion, UniProt O60353 19-146, looked up)
chain: HSLFTCEPITVPRCMKMAYNMTFFPNLMGHYDQSIAAVEMEHFLPLANLECSPNIETFLCKAFVPTCIEQIHVVPPCRKLCEKVYSDCKKLIDTFGIRWPEELECDRLQYCDETVPVTFDPHTEFLGP
notes: as for B1
B8: FZD5-Fc (Fc fusion, UniProt Q13467 27-157, looked up)
chain: ASKAPVCQEITVPMCRGIGYNLTHMPNQFNHDTQDEAGLEVHQFWPLVEIQCSPDLRFFLCSMYTPICLPDYHKPLPPCRSVCERAKAGCSPLMRQYGFAWPERMSCDRLPVLGRDAEVLCMDYNRSEATT
notes: as for B1

How the values were obtained:
RSPO1-CD4™ = target: B2; assay: FACS, Fc fusion on HEK 293 cells transfected with RSPO1-CD4™ and GFP
Procedure: (§1) To determine the mechanism by which RSPO1 activates beta-catenin signaling, FACS analysis was used to assess binding between RSPO1 and LGR5. In certain embodiments, binding between soluble LGR5 and cell-surface RSPO1 was determined. A cell-surface RSPO1 protein was generated by ligating full-length human RSPO1 to the transmembrane domain of CD4 using standard recombinant DNA techniques (RSPO1-CD4™). HEK 293 cells were transiently transfected RSPO1-CD4™ and GFP. After 48 hours, cells were suspended in ice cold PBS containing 2% FCS and then incubated on ice in the presence of LGR5-Fc, LRP6-ECD-Fc (containing the extracellular domain of human LRP6 fused to an Fc domain), LRP6E1-2-Fc (containing amino acids 1-629 of human LRP6 fused to an Fc domain), or various FZD-Fc constructs, including FZD1-10. […] Only a weak interaction between RSPO1 and the WNT co-receptor LRP6 was detected.

FZD2-Fc = FZD2-Fc (UniProt Q14332 24-159); assay: as above
Procedure: as §1

FZD7-Fc = FZD7-Fc (UniProt O75084 33-170); assay: as above
Procedure: as §1

FZD1-Fc = target: T2, FZD1-Fc (UniProt Q9UP38 87-237); assay: as above
T2 construct: One of the 'various FZD-Fc constructs, including FZD1-10'; not shown: Fc
Procedure: as §1

FLAG-LGR5-CD4™ = target: T1, FLAG-LGR5-CD4™; assay: FACS, Fc fusion on HEK 293 cells transfected with FLAG-LGR5-CD4™ and GFP, with heparin
Procedure: In certain embodiments, binding between soluble RSPO1 and cell-surface LGR5 was determined. A variant cell-surface LGR5 protein was generated by ligating amino acids 22-564 of LGR5 to an N-terminal FLAG tag and to the transmembrane domain of CD4 using standard recombinant DNA techniques (FLAG-LGR5-CD4™). HEK 293 cells were transiently transfected with FLAG-LGR5-CD4™ and GFP. After 48 hours, cells were suspended in ice cold PBS containing 2% FCS and heparin and then incubated on ice in the presence of RSPO1-Fc, FZD8-Fc, or a FLAG antibody as a positive control.

binding result (RSPO1-CD4™)	Binder	further results
no binding	B1	–
–	B2	binding result (FZD2-Fc): no binding; binding result (FZD7-Fc): no binding; binding result (FZD1-Fc): no binding
no binding	B3	binding result (FLAG-LGR5-CD4™): no binding
no binding	B4	–
no binding	B5	–
no binding	B6	–
no binding	B7	–
no binding	B8	–
